Test results reported in publication PMC5976803, “Engineered membrane protein antigens successfully induce antibodies against extracellular regions of claudin-5” (Scientific Reports, 2018).
Numbering of substitutions follows the chain as printed. Values belong to the binder of their own block, whether it stands above or below them.

Assays:
[1] = target: T1, AGIA-tagged human CLDN-5, cell-free synthesized proteoliposome (Homo sapiens, UniProt O00501); experiment: ELISA; cell-free synthesized AGIA-tagged CLDN proteoliposomes immobilised on a microtiter plate overnight at 4 °C; mAb 10 µg/mL in 5% skimmed milk/T-TBS, 1 h at room temperature; HRP anti-mouse IgG + IgM; conditions: both partners purified
T1 construct: claudin-5, human; codon-converted synthetic gene; The vector pEU-E01-AGIA-GW puts a start codon and the AGIA tag at the 5′-end of the cassette, though the label reads hCLDN-5-AGIA; also called hCLDN-5-AGIA; cell-free synthesized CLDN-5; source: wheat cell-free synthesis on liposomes, proteoliposomes collected by centrifugation; not shown: AGIA, N-terminal, kept

[2] = target: T2, mouse claudin-5 expressed in HT-1080 cells (Mus musculus (Mouse)., UniProt O54942); experiment: flow cytometry on cells; HT-1080 cells stably expressing CLDNs or CLDN-5 mutants, detached with 0.05% trypsin/0.02% EDTA; 5 µg/mL mAb; fluorescence-conjugated goat anti-mouse IgG; conditions: one partner purified
T2 construct: claudin-5, mouse; The TEER assays used MDCKII cells expressing mouse CLDN-5; also called mouse CLDN-5; mCLDN-5; source: HT-1080 cells, stably expressing

[3] = target: T3, human claudin-5 expressed in HT-1080 cells (Homo sapiens (Human)., UniProt O00501); experiment: as above; conditions: one partner purified
T3 construct: claudin-5, human; In the western blot the same protein stood denatured in the cell lysate; The TEER assays used MDCKII cells expressing human CLDN-5; also called human CLDN-5; hCLDN-5; source: HT-1080 cells, stably expressing; on cells and in lysate

[4] = target: T4, human claudin-1 expressed in HT-1080 cells (Homo sapiens (Human)., UniProt O95832); experiment: as above; conditions: one partner purified
T4 construct: claudin-1, human; also called human CLDN-1; source: HT-1080 cells, stably expressing

[5] = target: T5, human claudin-4 expressed in HT-1080 cells (Homo sapiens (Human)., UniProt O14493); experiment: as above; conditions: one partner purified
T5 construct: claudin-4, human; also called human CLDN-4; source: HT-1080 cells, stably expressing

[6] = target: T6, human claudin-3 expressed in HT-1080 cells (Homo sapiens (Human)., UniProt O15551); experiment: as above; conditions: one partner purified
T6 construct: claudin-3, human; also called human CLDN-3; source: HT-1080 cells, stably expressing

[7] = target: T7, human claudin-7 expressed in HT-1080 cells (Homo sapiens (Human)., UniProt O95471); experiment: as above; conditions: one partner purified
T7 construct: claudin-7, human; also called human CLDN-7; source: HT-1080 cells, stably expressing

[8] = target: T8, human claudin-2 expressed in HT-1080 cells (Homo sapiens (Human)., UniProt P57739); experiment: as above; conditions: one partner purified
T8 construct: claudin-2, human; also called human CLDN-2; source: HT-1080 cells, stably expressing

[9] = target: T9, human claudin-6 expressed in HT-1080 cells (Homo sapiens (Human)., UniProt P56747); experiment: as above; conditions: one partner purified
T9 construct: claudin-6, human; also called human CLDN-6; source: HT-1080 cells, stably expressing

[10] = target: T3, human claudin-5 expressed in HT-1080 …; experiment: flow cytometry on cells; HT-1080/hCLDN-5 cells with purified mAb at 0.0024–40 µg/mL; mean fluorescence intensity fitted to Y = Bmax • X/(Kd + X); apparent dissociation constant; three independent experiments; conditions: one partner purified

T7 sequence (O95471 whole entry): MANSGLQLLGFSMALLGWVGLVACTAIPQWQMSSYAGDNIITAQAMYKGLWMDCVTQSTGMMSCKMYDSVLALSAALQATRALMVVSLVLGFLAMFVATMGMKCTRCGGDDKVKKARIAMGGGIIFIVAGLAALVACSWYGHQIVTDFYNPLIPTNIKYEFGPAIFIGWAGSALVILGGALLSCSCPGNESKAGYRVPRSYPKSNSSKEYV
T9 sequence (P56747 whole entry): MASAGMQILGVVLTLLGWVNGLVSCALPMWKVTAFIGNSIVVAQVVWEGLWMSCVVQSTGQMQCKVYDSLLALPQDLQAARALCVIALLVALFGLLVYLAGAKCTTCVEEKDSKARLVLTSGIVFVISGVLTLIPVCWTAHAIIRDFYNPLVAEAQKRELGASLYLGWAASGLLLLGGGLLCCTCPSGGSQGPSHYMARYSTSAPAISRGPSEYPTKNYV
T3 sequence (O00501 whole entry): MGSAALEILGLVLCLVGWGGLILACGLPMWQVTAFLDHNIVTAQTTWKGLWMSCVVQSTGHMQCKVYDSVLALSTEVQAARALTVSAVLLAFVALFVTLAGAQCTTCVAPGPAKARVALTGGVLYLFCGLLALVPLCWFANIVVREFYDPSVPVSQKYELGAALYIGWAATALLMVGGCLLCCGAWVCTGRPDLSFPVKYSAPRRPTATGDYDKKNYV
T1 sequence (O00501 whole entry): as above
T2 sequence (O54942 whole entry): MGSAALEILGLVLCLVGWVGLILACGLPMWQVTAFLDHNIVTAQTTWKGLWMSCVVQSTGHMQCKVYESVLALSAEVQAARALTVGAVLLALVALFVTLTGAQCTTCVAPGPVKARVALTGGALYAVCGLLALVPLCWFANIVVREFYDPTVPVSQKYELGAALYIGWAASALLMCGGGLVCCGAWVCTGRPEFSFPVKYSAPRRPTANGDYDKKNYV
T6 sequence (O15551 whole entry): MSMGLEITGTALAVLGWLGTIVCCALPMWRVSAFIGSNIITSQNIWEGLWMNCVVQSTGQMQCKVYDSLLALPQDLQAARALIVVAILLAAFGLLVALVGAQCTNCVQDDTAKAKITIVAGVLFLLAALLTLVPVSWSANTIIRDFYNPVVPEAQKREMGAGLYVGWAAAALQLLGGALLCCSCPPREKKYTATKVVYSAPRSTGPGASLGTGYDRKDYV
T8 sequence (P57739 whole entry): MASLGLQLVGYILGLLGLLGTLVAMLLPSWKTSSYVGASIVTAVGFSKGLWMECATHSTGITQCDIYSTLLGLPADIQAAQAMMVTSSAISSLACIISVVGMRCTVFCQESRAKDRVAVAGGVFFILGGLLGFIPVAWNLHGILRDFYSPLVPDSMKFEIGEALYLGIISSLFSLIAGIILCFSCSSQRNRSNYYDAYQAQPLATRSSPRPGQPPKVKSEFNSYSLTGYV
T4 sequence (O95832 whole entry): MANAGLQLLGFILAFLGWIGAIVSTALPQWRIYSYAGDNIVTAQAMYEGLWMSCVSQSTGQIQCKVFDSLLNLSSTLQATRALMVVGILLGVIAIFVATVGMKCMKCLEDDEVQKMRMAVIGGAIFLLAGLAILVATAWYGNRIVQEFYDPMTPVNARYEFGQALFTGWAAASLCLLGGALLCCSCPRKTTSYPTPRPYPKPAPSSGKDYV

B1: anti-CLDN-5 ECR mAb clone 1B3 (antibody, V domains shown)
VH: QIQLVQSGPELKKPGETVKISCKASGYSFTAHGMSWVKQAPGKGLKWMGWINTYSGVPAYADDFKGRFAFSLETSPSTAFLQINNLKNEDTATYFCTRSHYDRKFGYWGQGTLVTVSA
VL: QAVVTQESALTTSPGETVTLTCRSSTGAVTTSNYANWVQEKPDHLFTGLIGDTNNRAPGVPARFSGSLIGDKAALTITGAQTGDEAIYFCALWYSNLWVFGGGTKLTVR
notes: source: hybridoma from an Antigen1-immunized BXSB mouse; ascitic fluid, purified (Protein G Sepharose); also reconstituted as recombinant antibody
binding result [1]: binds
binding result [2]: no binding (tested: 5 µg/mL)
binding result [3]: binds
binding result [4]: no binding (tested: 5 µg/mL)
binding result [5]: no binding (tested: 5 µg/mL)
binding result [6]: no binding (tested: 5 µg/mL)
binding result [7]: no binding (tested: 5 µg/mL)
binding result [8]: no binding (tested: 5 µg/mL)
binding result [9]: no binding (tested: 5 µg/mL)

B3: anti-CLDN-5 ECR mAb clone 1D1 (antibody, V domains shown)
VH: QVQLQQPGAEHVKPGASVKLSCKASGYTFTTYWIHWVKQRPGRGLEWIGRIAPNSGGTKYNENFKSKATLTVDRPSTTAYMQLSGLTSEDSAVYYCARWDFTFGTNLDYWGQGTTLTVSS
VL: DIVMTQSQKFMSTSVGDRVSITCKASQNVRTAVAWYQQKPGQSPKALIFLASNRHTGVPDRFTGSGSGTDFTLTITNVQSEDLADYFCLQHWTYPYTFGGGTKLEIK
notes: source: hybridoma from an Antigen2-immunized BXSB mouse; ascitic fluid, purified (Protein G Sepharose); also reconstituted as recombinant antibody
binding result [1]: binds
binding result [2]: no binding (tested: 5 µg/mL)
binding result [3]: binds
binding result [4]: no binding (tested: 5 µg/mL)
binding result [5]: no binding (tested: 5 µg/mL)
binding result [6]: no binding (tested: 5 µg/mL)
binding result [7]: no binding (tested: 5 µg/mL)
binding result [8]: no binding (tested: 5 µg/mL)
binding result [9]: no binding (tested: 5 µg/mL)

Second part, the binder after the results:

binding result [2]: no binding (tested: 5 µg/mL)
binding result [4]: no binding (tested: 5 µg/mL)
binding result [5]: no binding (tested: 5 µg/mL)
binding result [6]: no binding (tested: 5 µg/mL)
binding result [7]: no binding (tested: 5 µg/mL)
binding result [8]: no binding (tested: 5 µg/mL)
binding result [9]: no binding (tested: 5 µg/mL)
Kd [10]: 7.37 nM
B2: anti-CLDN-5 ECR mAb clone 2B12 (antibody, V domains shown)
VH: QVQLQQSGAELARPGASVKLSCKASGYTFTRFGMSWVKQRTGQGLEWIGEIYPGSGDTYYSENFKGKATLTADKSSGTAYMELRSLTSEDSAVYFCARWGIYYGNPYAMDYWGQGTSVTVSS
VL: DIVMTQAAPSVPVTPGESVSISCRSSKSLLHSNGNTYLYWFLQRPGQSPQLLIYRMSNLASGVPDRFSGSGSGTAFTLRISRVEAEDVGVYYCLQHLEYPFTFGSGTKLEIK
notes: as for B3

binding result [1]: binds
binding result [2]: no binding (tested: 5 µg/mL)
binding result [3]: binds
binding result [4]: no binding (tested: 5 µg/mL)
binding result [5]: no binding (tested: 5 µg/mL)
binding result [6]: no binding (tested: 5 µg/mL)
binding result [7]: no binding (tested: 5 µg/mL)
binding result [8]: no binding (tested: 5 µg/mL)
binding result [9]: no binding (tested: 5 µg/mL)
B4: anti-CLDN-5 ECR mAb clone 2B1 (antibody, V domains shown)
VH: B3 VH with H11L, Y32F, N54Y, K59T, N63K, S84I, G85S, F103Y, T105S
VL: B3 VL with T22P, F49Y, T76S, Q90G, T93D
notes: as for B3
